Data: US20180100026A1
Several values for one entry are separate records, joined by “and”; a condition that tells them apart may be missing. Equal values may be shown once.

Columns and labels:
Experiment in all cases: cell-based or functional assay
[1] = target: anti-FITC CAR (FITC-E2 scFv, CD8 hinge and transmembrane region, 41BB and CD3 zeta) on human T cells
CD19 (human) = CD19 (human) (UniProt P15391)
[2] = target: anti-FITC CAR with the 4M5.3 scFv (LV-EF1a-4M5.3-BBZ), on transduced human T cells
[3] = target: anti-FITC CAR with the 4D5Flu scFv (LV-EF1a-4D5Flu-BBZ), on transduced human T cells
[4] = target: anti-FITC CAR with the 4-4-20 scFv (LV-EF1a-4-4-20-BBZ), on transduced human T cells
[5] = target: anti-FITC CAR with the fully human FITC-E2 scFv (CD8 hinge, 41BB, CD3 zeta), on transduced human T cells
anti-FITC CAR with the fully human FITC-E2 scFv (CD8 hinge, 41BB, CD3 zeta), on transduced human T cells, sequence (chain, as listed by the source limits assumed): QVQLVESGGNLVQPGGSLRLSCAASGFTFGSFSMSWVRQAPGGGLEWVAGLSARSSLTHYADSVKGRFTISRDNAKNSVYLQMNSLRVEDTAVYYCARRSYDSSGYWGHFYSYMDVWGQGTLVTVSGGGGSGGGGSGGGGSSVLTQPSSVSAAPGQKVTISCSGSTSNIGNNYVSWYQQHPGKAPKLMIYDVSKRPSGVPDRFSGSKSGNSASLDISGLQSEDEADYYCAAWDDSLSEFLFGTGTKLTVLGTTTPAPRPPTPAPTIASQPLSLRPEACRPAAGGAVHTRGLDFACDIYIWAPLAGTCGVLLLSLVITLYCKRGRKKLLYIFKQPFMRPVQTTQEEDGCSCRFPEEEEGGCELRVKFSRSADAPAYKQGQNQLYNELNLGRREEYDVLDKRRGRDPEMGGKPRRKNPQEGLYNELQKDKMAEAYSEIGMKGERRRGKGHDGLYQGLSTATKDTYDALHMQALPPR

[6] = target: CD19 on NALM-6 (CD19+) cells (human) (UniProt P15391)
CD19 on NALM-6 (CD19+) cells (human), sequence (P15391 20-556): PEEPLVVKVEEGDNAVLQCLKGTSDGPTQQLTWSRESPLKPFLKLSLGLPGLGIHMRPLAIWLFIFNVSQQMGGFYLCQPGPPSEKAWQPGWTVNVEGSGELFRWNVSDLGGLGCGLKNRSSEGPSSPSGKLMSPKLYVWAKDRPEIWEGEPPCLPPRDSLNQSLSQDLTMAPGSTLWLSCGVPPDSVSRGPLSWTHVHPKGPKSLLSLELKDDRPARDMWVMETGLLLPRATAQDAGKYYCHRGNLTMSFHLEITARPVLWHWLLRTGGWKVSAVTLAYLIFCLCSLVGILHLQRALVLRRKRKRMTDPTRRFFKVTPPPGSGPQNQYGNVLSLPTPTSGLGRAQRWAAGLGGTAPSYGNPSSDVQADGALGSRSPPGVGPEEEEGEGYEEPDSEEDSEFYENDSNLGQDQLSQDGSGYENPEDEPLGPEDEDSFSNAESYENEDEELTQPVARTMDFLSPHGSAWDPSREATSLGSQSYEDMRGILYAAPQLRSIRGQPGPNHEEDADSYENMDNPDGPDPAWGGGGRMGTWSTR

[7] = target: CD33 on MOLM14 cells (human) (UniProt P20138)
CD33 on MOLM14 cells (human), sequence (P20138 18-364): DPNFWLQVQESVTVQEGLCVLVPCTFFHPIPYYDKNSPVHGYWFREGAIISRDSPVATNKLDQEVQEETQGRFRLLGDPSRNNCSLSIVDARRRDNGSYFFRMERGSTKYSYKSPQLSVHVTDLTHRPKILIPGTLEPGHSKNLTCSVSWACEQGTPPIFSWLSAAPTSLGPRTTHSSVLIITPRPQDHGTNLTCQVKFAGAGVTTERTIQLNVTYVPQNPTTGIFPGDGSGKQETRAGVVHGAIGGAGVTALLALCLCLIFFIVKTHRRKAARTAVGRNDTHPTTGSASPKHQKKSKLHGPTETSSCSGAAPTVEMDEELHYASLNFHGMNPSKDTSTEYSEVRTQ

CD19 (human), sequence (P15391 20-556): as the sequence (P15391 20-556) above

“anti-CD19 AB-FITC switch (anti-CD19 Fab, clone FMC63, FITC conjugated at light chain glycine 68 and heavy chain serine 74)” was tested, and the % cytotoxicity, anti-FITC CAR-T + NALM-6 + 10 pM AB-FITC, with 0 nM free fluorescein [1] was 54.8%, the % cytotoxicity, anti-FITC CAR-T + NALM-6 + 10 pM AB-FITC, with 1 nM free fluorescein [1] was 57.1% and 58.1% and the % cytotoxicity, anti-FITC CAR-T + NALM-6 + 10 pM AB-FITC, with 10 nM free fluorescein [1] was 56.2% and 56%. For the same substance, the % cytotoxicity, anti-FITC CAR-T + NALM-6 + 10 pM AB-FITC, with 100 nM free fluorescein [1] was 55.7%, the % cytotoxicity, anti-FITC CAR-T + NALM-6 + 10 pM AB-FITC, with 1000 nM free fluorescein [1] was 50.4% and 50.9% and the % cytotoxicity, anti-FITC CAR-T + NALM-6 + 10 pM AB-FITC, with 10000 nM free fluorescein [1] was 27.4% and 31.6%.
“CART-19: second generation CD19 specific CAR with anti-CD19 scFv (clone FMC63), 41BB and CD3zeta, on human T cells” was tested, and the Human IFN-g, CART19 + Nalm-6 (CD19 (human)) was 915 and 924 and 951, the target cell lysis, CART19 + Nalm-6, E:T 0.04:1 (CD19 (human)) was 12.6 and 13 and the target cell lysis, CART19 + Nalm-6, E:T 0.2:1 (CD19 (human)) was 21.7 and 24.5. For the same substance, the target cell lysis, CART19 + Nalm-6, E:T printed as 1:01 (CD19 (human)) was 52 and 48, the target cell lysis, CART19 + Nalm-6, E:T printed as 5:01 (CD19 (human)) was 75.2 and 73.3 and the target cell lysis, CART19 + Nalm-6, E:T printed as 15:01 (CD19 (human)) was 87.3 and 88.3.
In the case of “anti-CD19 AB-FITC switch (anti-human CD19 Fab, clone FMC63, FITC conjugated at light chain glycine 68 and heavy chain serine 74)”, the % cytotoxicity of CD19+ target cells, FIG. 68A, switch at 0.01 pM [2] is reported as 21%, the % cytotoxicity of CD19+ target cells, FIG. 68A, switch at 0.1 pM [2] is reported as 46.4% and 33.9% and the % cytotoxicity of CD19+ target cells, FIG. 68A, switch at 1 pM [2] is reported as 58.2% and 56.6%. The % cytotoxicity of CD19+ target cells, FIG. 68A, switch at 10 pM [2] was 58.9% and 48.9%, the % cytotoxicity of CD19+ target cells, FIG. 68A, switch at 100 pM [2] was 70.5% and 71.3% and the % cytotoxicity of CD19+ target cells, FIG. 68A, switch at 1000 pM [2] was 83.2%. For the same substance, the % cytotoxicity of CD19+ target cells, FIG. 68A, switch at 10000 pM [2] was 85.7% and 72%, the % cytotoxicity of CD19+ target cells, FIG. 68B, switch at 0.0001 pM [2] was 2% and the % cytotoxicity of CD19+ target cells, FIG. 68B, switch at 0.001 pM [2] was 9.17%. For the same substance, the % cytotoxicity of CD19+ target cells, FIG. 68B, switch at 0.01 pM [2] was 1.15%, the % cytotoxicity of CD19+ target cells, FIG. 68B, switch at 0.1 pM [2] was 25.4% and the % cytotoxicity of CD19+ target cells, FIG. 68B, switch at 1 pM [2] was 28.5% and 27.5%. The % cytotoxicity of CD19+ target cells, FIG. 68B, switch at 10 pM [2] was 58.4%, the % cytotoxicity of CD19+ target cells, FIG. 68B, switch at 100 pM [2] was 60.8% and 65.8% and the % cytotoxicity of CD19+ target cells, FIG. 68B, switch at 1000 pM [2] was 73.4% and 71.5%. The % cytotoxicity of CD19+ target cells, FIG. 68B, switch at 10000 pM [2] was 64.2% and 55.2%, the % cytotoxicity of CD19+ target cells, FIG. 68A, switch at 0.01 pM [3] was 24% and 29.5% and the % cytotoxicity of CD19+ target cells, FIG. 68A, switch at 0.1 pM [3] was 39.3% and 45.7%. For the same substance, the % cytotoxicity of CD19+ target cells, FIG. 68A, switch at 1 pM [3] was 60.1%, the % cytotoxicity of CD19+ target cells, FIG. 68A, switch at 10 pM [3] was 56.1% and 67.7% and the % cytotoxicity of CD19+ target cells, FIG. 68A, switch at 100 pM [3] was 74.3% and 69.3%. The % cytotoxicity of CD19+ target cells, FIG. 68A, switch at 1000 pM [3] was 84.8%, the % cytotoxicity of CD19+ target cells, FIG. 68A, switch at 10000 pM [3] was 73.6% and 76.9% and the % cytotoxicity of CD19+ target cells, FIG. 68A, switch at 1.00E-04 pM [3] was 6.29%. The % cytotoxicity of CD19+ target cells, FIG. 68B, switch at 0.01 pM [3] was 1.9% and 8.37%, the % cytotoxicity of CD19+ target cells, FIG. 68B, switch at 0.1 pM [3] was 10.9% and 10.4% and the % cytotoxicity of CD19+ target cells, FIG. 68B, switch at 1 pM [3] was 39.4% and 32.9%. For the same substance, the % cytotoxicity of CD19+ target cells, FIG. 68B, switch at 10 pM [3] was 63.2% and 68.1%, the % cytotoxicity of CD19+ target cells, FIG. 68B, switch at 100 pM [3] was 69.4% and 61.2% and the % cytotoxicity of CD19+ target cells, FIG. 68B, switch at 1000 pM [3] was 72.5% and 63.6%. For the same substance, the % cytotoxicity of CD19+ target cells, FIG. 68B, switch at 10000 pM [3] was 69.1% and 66.8%, the % cytotoxicity of CD19+ target cells, FIG. 68A, switch at 0.01 pM [4] was 0.526% and the % cytotoxicity of CD19+ target cells, FIG. 68A, switch at 0.1 pM [4] was 32.8% and 33.3%. For the same substance, the % cytotoxicity of CD19+ target cells, FIG. 68A, switch at 1 pM [4] was 52.3%, the % cytotoxicity of CD19+ target cells, FIG. 68A, switch at 10 pM [4] was 64.9% and 66.1% and the % cytotoxicity of CD19+ target cells, FIG. 68A, switch at 100 pM [4] was 71.7% and 65.6%. For the same substance, the % cytotoxicity of CD19+ target cells, FIG. 68A, switch at 1000 pM [4] was 67.8%, the % cytotoxicity of CD19+ target cells, FIG. 68A, switch at 10000 pM [4] was 74.1% and 71.5% and the % cytotoxicity of CD19+ target cells, FIG. 68A, switch at 1.00E-03 pM [4] was 4.97%. The % cytotoxicity of CD19+ target cells, FIG. 68B, switch at 0.1 pM [4] was 14.8% and 10.9%, the % cytotoxicity of CD19+ target cells, FIG. 68B, switch at 1 pM [4] was 36.7% and 37.8% and the % cytotoxicity of CD19+ target cells, FIG. 68B, switch at 10 pM [4] was 59% and 46.7%. The % cytotoxicity of CD19+ target cells, FIG. 68B, switch at 100 pM [4] was 57.9%, the % cytotoxicity of CD19+ target cells, FIG. 68B, switch at 1000 pM [4] was 55.8% and the % cytotoxicity of CD19+ target cells, FIG. 68B, switch at 10000 pM [4] was 68.6%. The % cytotoxicity of CD19+ target cells, FIG. 68A, switch at 0.01 pM [5] was 26.7% and 38.4%, the % cytotoxicity of CD19+ target cells, FIG. 68A, switch at 0.1 pM [5] was 49% and 60.5% and the % cytotoxicity of CD19+ target cells, FIG. 68A, switch at 1 pM [5] was 51% and 75.3%. For the same substance, the % cytotoxicity of CD19+ target cells, FIG. 68A, switch at 10 pM [5] was 62.1% and 75.5%, the % cytotoxicity of CD19+ target cells, FIG. 68A, switch at 100 pM [5] was 69.6% and 80.5% and the % cytotoxicity of CD19+ target cells, FIG. 68A, switch at 1000 pM [5] was 80.6% and 99.8%. The % cytotoxicity of CD19+ target cells, FIG. 68A, switch at 10000 pM [5] was 93.1% and 100%, the % cytotoxicity of CD19+ target cells, FIG. 68A, switch at 1.00E-03 pM [5] was 10.3% and 25.2% and the % cytotoxicity of CD19+ target cells, FIG. 68B, switch at 0.0001 pM [5] was 3.26% and 17%. The % cytotoxicity of CD19+ target cells, FIG. 68B, switch at 0.001 pM [5] was 19.6%, the % cytotoxicity of CD19+ target cells, FIG. 68B, switch at 0.01 pM [5] was 17.4% and the % cytotoxicity of CD19+ target cells, FIG. 68B, switch at 0.1 pM [5] was 15%. The % cytotoxicity of CD19+ target cells, FIG. 68B, switch at 1 pM [5] was 47.4% and 43.2%, the % cytotoxicity of CD19+ target cells, FIG. 68B, switch at 10 pM [5] was 64.6% and 70.1% and the % cytotoxicity of CD19+ target cells, FIG. 68B, switch at 100 pM [5] was 60.7% and 67.6%. The % cytotoxicity of CD19+ target cells, FIG. 68B, switch at 1000 pM [5] was 70.4% and the % cytotoxicity of CD19+ target cells, FIG. 68B, switch at 10000 pM [5] was 72.7% and 75.4%.
In the case of isotype control (Millipore) (antibody), the % cytotoxicity, anti-FITC CAR-T + NALM-6 + 10 pM AB-FITC, with 0 pM isotype (IgG) [6] is reported as 54.6% and 51.4%, the % cytotoxicity, anti-FITC CAR-T + NALM-6 + 10 pM AB-FITC, with 1 pM isotype (IgG) [6] is reported as 48.3% and 48.2% and the % cytotoxicity, anti-FITC CAR-T + NALM-6 + 10 pM AB-FITC, with 10 pM isotype (IgG) [6] is reported as 49.6% and 49.9%. For the same substance, the % cytotoxicity, anti-FITC CAR-T + NALM-6 + 10 pM AB-FITC, with 100 pM isotype (IgG) [6] was 50% and 44.7%, the % cytotoxicity, anti-FITC CAR-T + NALM-6 + 10 pM AB-FITC, with 1000 pM isotype (IgG) [6] was 45.7% and 41.6% and the % cytotoxicity, anti-FITC CAR-T + NALM-6 + 10 pM AB-FITC, with 10000 pM isotype (IgG) [6] was 44.4% and 43%.
Substance “anti-CD33 hM195 CD-FITC switch (light chain T113 and heavy chain A117) (Fab)” has an EC50 of cytotoxicity of anti-FITC CAR-T cells against MOLM14 cells [7] of 0.0185 nM.
In the case of “non-conjugated anti-CD19 Fab (clone FMC63)”, the % cytotoxicity at 0.0001 pM; anti-FITC CAR-T; FIG. 72A [1] is reported as 1.78%, the % cytotoxicity at 0.0001 pM; anti-FITC CAR-T; FIG. 72C [1] is reported as 1.12% and the % cytotoxicity at 0.001 pM; anti-FITC CAR-T; FIG. 72A [1] is reported as 0.731%. The % cytotoxicity at 0.001 pM; anti-FITC CAR-T; FIG. 72B [1] was 2.73%, the % cytotoxicity at 0.001 pM; anti-FITC CAR-T; FIG. 72C [1] was 5.24% and the % cytotoxicity at 0.01 pM; anti-FITC CAR-T; FIG. 72A [1] was 8.15%. It also gave a % cytotoxicity at 0.01 pM; anti-FITC CAR-T; FIG. 72B [1] of 2.04%, a % cytotoxicity at 0.1 pM; anti-FITC CAR-T; FIG. 72A [1] of 1.96% and a % cytotoxicity at 0.1 pM; anti-FITC CAR-T; FIG. 72C [1] of 2.66%. For the same substance, the % cytotoxicity at 1 pM; anti-FITC CAR-T; FIG. 72A [1] was 4.93%, the % cytotoxicity at 1 pM; anti-FITC CAR-T; FIG. 72B [1] was 3.84% and the % cytotoxicity at 1 pM; anti-FITC CAR-T; FIG. 72C [1] was 1.99%. For the same substance, the % cytotoxicity at 10 pM; anti-FITC CAR-T; FIG. 72A [1] was 3.73% and 2.56%, the % cytotoxicity at 10 pM; anti-FITC CAR-T; FIG. 72B [1] was 4.56% and 2.09% and the % cytotoxicity at 10 pM; anti-FITC CAR-T; FIG. 72C [1] was 1.85% and 9.94%. The % cytotoxicity at 100 pM; anti-FITC CAR-T; FIG. 72A [1] was 4.61% and 8.92%, the % cytotoxicity at 100 pM; anti-FITC CAR-T; FIG. 72B [1] was 3.24% and 1.4% and the % cytotoxicity at 100 pM; anti-FITC CAR-T; FIG. 72C [1] was 4.45% and 12.1%. The % cytotoxicity at 1000 pM; anti-FITC CAR-T; FIG. 72B [1] was 10.5% and 2.6%, the % cytotoxicity at 1000 pM; anti-FITC CAR-T; FIG. 72C [1] was 2.18% and 5.61% and the % cytotoxicity at 10000 pM; anti-FITC CAR-T; FIG. 72A [1] was 11.7% and 1.87%. The % cytotoxicity at 10000 pM; anti-FITC CAR-T; FIG. 72B [1] was 2.58% and the % cytotoxicity at 10000 pM; anti-FITC CAR-T; FIG. 72C [1] was 1.37% and 1.83%.
